{"source": "paper PMC4450660", "about": "“Biochemical and Structural Characterization of Enolase from Chloroflexus aurantiacus: Evidence for a Thermophilic Origin” (Frontiers in Bioengineering and Biotechnology, 2015)", "substrate": "O=C(O)[C@@H](CO)OP(=O)(O)O", "test": "purified protein", "assay_type": "biochemical, Chloroflexus aurantiacus", "conditions": "25 °C, pH 6.5, 50 mM Bis-Tris propane, 5 mM MgCl2, crystal structure with 2-PGA in active site, open conformation"}
{"protein": "EnoCa (enolase-1 from Chloroflexus aurantiacus) (Chloroflexus aurantiacus J-10-fl) (protein, native protein purified from C. aurantiacus cells, untagged; homodimer, subunit ~46 kDa, total ~92-96 kDa) MSTLIEAIVAREVLDSRGNPTIEVDVRLESGDVGRAIVPSGASTGAHEALELRDGDKSRYNGKGVLKAVQAVNEDIAEALIGFDAADQIALDQELIALDGTPNKSKLGANAILGVSLAAAKAAAAAFGLPLYRYLGGVYAHVLPVPMMNIMNGGQHATNSTDFQEFMIMPVGAESFREGLRWGAEIYHMLKKVIHDRGFSTTVGDEGGFAPSLPTNDAPLQLIMEAIEKAGYRPGEQIVIALDPATTEIFEDGKYHLKREGRSLSSAEMVDYWVDLVNRYPIISLEDGLAEDDWEGWALLRAKLGDRVQLVGDDFLVTNVQRLQRAIEAKAANSILIKLNQIGSLTETLSAIQLAQRSGWTAVVSHRSGESEDVTIADLVVATNAGQIKTGAPARTDRIAKYNQLLRIEEELGSAARYAGRSAFKV", "values": [{"measurement": "Km", "value": "160 ± 10", "unit": "µM"}]}
